Legend:
[1] = target: T1, MBP-TDF1 (Arabidopsis thaliana) (UniProt Q9LSI7); experiment: EMSA; conditions: 10 mM Tris-HCl pH 7.5, 50 mM KCl, 1 mM DTT, 20 uL, room temperature 20 min; 6% polyacrylamide, 0.5x TBE
T1 sequence: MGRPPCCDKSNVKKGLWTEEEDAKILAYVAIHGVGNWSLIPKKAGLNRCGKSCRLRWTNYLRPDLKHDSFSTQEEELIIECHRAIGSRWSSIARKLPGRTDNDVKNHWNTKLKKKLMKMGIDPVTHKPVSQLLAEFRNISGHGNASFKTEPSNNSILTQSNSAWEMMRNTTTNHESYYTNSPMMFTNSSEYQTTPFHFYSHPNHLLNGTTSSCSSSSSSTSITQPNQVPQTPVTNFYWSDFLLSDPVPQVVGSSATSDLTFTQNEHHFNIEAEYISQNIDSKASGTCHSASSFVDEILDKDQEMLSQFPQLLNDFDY

[2] = target: T1, MBP-TDF1 (Arabidopsis thaliana); experiment: competition; conditions: 10 mM Tris-HCl pH 7.5, 50 mM KCl, 1 mM DTT, 20 uL, room temperature 20 min; 6% polyacrylamide, 0.5x TBE

Sequence: TACGTGATTAGGATTTGTAACCACGTAGACGTGTAAAACAAAATTACTTTTTTATCTGTGATTTATAGGAATTTGAGATTTGAATGCAACGTTGTTGTTTCATCTAACAATAAGTGATGAAGAACTTCAAAAGTCTAAAACCATATCATTTATAAAATCA (double strand) [SKS18 promoter 18-2 probe]
- binding [1]: binds
- binding [2]: binds
